From patent US20120058906A1 (published 2012) come the findings set out here.

Sequences and labels used below:
B1: Fab VH1-46_IGHD6-6*01>1_IGHJ1*01_S104F & L6_IGKJ1*01 (Fab, V domains shown)
VH: QVQLVQSGAEVKKPGASVKVSCKASGYTFTSYYMHWVRQAPGQGLEWMGIINPSGGSTSYAQKFQGRVTMTRDTSTSTVYMELSSLRSEDTAVYYCAREEYSSFSAEYFQHWGQGTLVTVSS
VL: not shown
notes: Modified Fab
B2: Fab VH1-46_IGHD6-6*01_IGHJ1*01_S102A_S103P_S104F_H111F & L6_IGKJ1*01 (Fab, V domains shown)
VH: QVQLVQSGAEVKKPGASVKVSCKASGYTFTSYYMHWVRQAPGQGLEWMGIINPSGGSTSYAQKFQGRVTMTRDTSTSTVYMELSSLRSEDTAVYYCAREEYAPFSAEYFQFWGQGTLVTVSS
VL: not shown
notes: Modified Fab
B3: Fab VH6-1_IGHD3-3*01_IGHJ4*01 & V4-3_IGLJ4*01 (Fab, V domains shown)
VH: QVQLQQSGPGLVKPSQTLSLTCAISGDSVSSNSAAWNWIRQSPSRGLEWLGRTYYRSKWYNDYAVSVKSRITINPDTSKNQFSLQLNSVTPEDTAVYYCAREYYDFWSGYYTDYFDYWGQGTLVTVSS
VL: QPVLTQPTSLSASPGASARLTCTLRSGINLGSYRIFWYQQKPESPPRYLLSYYSDSSKHQGSGVPSRFSGSKDASSNAGILVISGLQSEDEADYYCMIWHSSASFVFGGGTQLIIL
notes: Fab from E. coli; VH joined to CH1 with Flag and His tags (Plasmid A), VL to lambda CL (Plasmid E)
B4: Fab VH1-46_IGHD6-6*01_IGHJ1*01 & L6_IGKJ1*01 (Fab, V domains shown)
VH: QVQLVQSGAEVKKPGASVKVSCKASGYTFTSYYMHWVRQAPGQGLEWMGIINPSGGSTSYAQKFQGRVTMTRDTSTSTVYMELSSLRSEDTAVYYCAREEYSSSSAEYFQHWGQGTLVTVSS
VL: not shown
notes: Germline Fab from E. coli; VH joined to CH1 with Flag/His tags (Plasmid A), VL to kappa constant region (Plasmid C)
B5: Fab VH1-46_IGHD6-6*01_IGHJ1*01_S102A_S103P_S104F & L6_IGKJ1*01 (Fab, V domains shown)
VH: QVQLVQSGAEVKKPGASVKVSCKASGYTFTSYYMHWVRQAPGQGLEWMGIINPSGGSTSYAQKFQGRVTMTRDTSTSTVYMELSSLRSEDTAVYYCAREEYAPFSAEYFQHWGQGTLVTVSS
VL: not shown
notes: Modified anti-DLL4 Fab; kappa Plasmid C)
B6: Fab VH1-46_IGHD6-6*01_IGHJ1*01_S102A_S103P_S104F & L6_IGKJ1*01_S31K (Fab, V domains shown)
VH: QVQLVQSGAEVKKPGASVKVSCKASGYTFTSYYMHWVRQAPGQGLEWMGIINPSGGSTSYAQKFQGRVTMTRDTSTSTVYMELSSLRSEDTAVYYCAREEYAPFSAEYFQHWGQGTLVTVSS
VL: EIVLTQSPATLSLSPGERATLSCRASQSVSKYLAWYQQKPGQAPRLLIYDASNRATGIPARFSGSGSGTDFTLTISSLEPEDFAVYYCQQRSNWPPWTFGQGTKVEIKR
notes: Modified anti-DLL4 Fab
B7: Fab VH1-46_IGHD6-6*01_IGHJ1*01_S102A_S103P_S104F_H111F & L6_IGKJ1*01 (Fab, V domains shown)
VH: QVQLVQSGAEVKKPGASVKVSCKASGYTFTSYYMHWVRQAPGQGLEWMGIINPSGGSTSYAQKFQGRVTMTRDTSTSTVYMELSSLRSEDTAVYYCAREEYAPFSAEYFQFWGQGTLVTVSS
VL: not shown
notes: as for B5
B8: Fab VH1-46_IGHD6-6*01_IGHJ1*01_S102A_S103P_S104F_H111Y & L6_IGKJ1*01 (Fab, V domains shown)
VH: QVQLVQSGAEVKKPGASVKVSCKASGYTFTSYYMHWVRQAPGQGLEWMGIINPSGGSTSYAQKFQGRVTMTRDTSTSTVYMELSSLRSEDTAVYYCAREEYAPFSAEYFQYWGQGTLVTVSS
VL: not shown
notes: as for B5
B9: Fab VH1-46_IGHD6-6*01>1_IGHJ1*01_S104F & L6_IGKJ1*01 (Fab, V domains shown)
VH: QVQLVQSGAEVKKPGASVKVSCKASGYTFTSYYMHWVRQAPGQGLEWMGIINPSGGSTSYAQKFQGRVTMTRDTSTSTVYMELSSLRSEDTAVYYCAREEYSSFSAEYFQHWGQGTLVTVSS
VL: not shown
notes: as for B5
B10: Fab VH6-1_IGHD3-3*01_IGHJ4*01 & V4-3_IGLJ4*01 (Fab, V domains shown)
VH: QVQLQQSGPGLVKPSQTLSLTCAISGDSVSSNSAAWNWIRQSPSRGLEWLGRTYYRSKWYNDYAVSVKSRITINPDTSKNQFSLQLNSVTPEDTAVYYCAREYYDFWSGYYTDYFDYWGQGTLVTVSS
VL: QPVLTQPTSLSASPGASARLTCTLRSGINLGSYRIFWYQQKPESPPRYLLSYYSDSSKHQGSGVPSRFSGSKDASSNAGILVISGLQSEDEADYYCMIWHSSASFVFGGGTQLIIL
notes: Germline Fab from E. coli; VH joined to CH1 with Flag/His tags (Plasmid A), VL to lambda constant region (Plasmid E)
B11: Fab VH5-51_IGHD5-18*01>3_IGHJ4*01 & V3-4_IGLJ1*01 (Fab, V domains shown)
VH: EVQLVQSGAEVKKPGESLKISCKGSGYSFTSYWIGWVRQMPGKGLEWMGIIYPGDSDTRYSPSFQGQVTISADKSISTAYLQWSSLKASDTAMYYCARRGYSYGYDYFDYWGQGTLVTVSS
VL: QTVVTQEPSFSVSPGGTVTLTCGLSSGSVSTSYYPSWYQQTPGQAPRTLIYSTNTRSSGVPDRFSGSILGNKAALTITGAQADDESDYYCVLYMGSGISYVFGTGTKVTVL
notes: as for B10
B12: Fab VH1-46_IGHD3-10*01_IGHJ4*01 & L12_IGKJ1*01 (Fab, V domains shown)
VH: QVQLVQSGAEVKKPGASVKVSCKASGYTFTSYYMHWVRQAPGQGLEWMGIINPSGGSTSYAQKFQGRVTMTRDTSTSTVYMELSSLRSEDTAVYYCAREYYYGSGSYYNDYFDYWGQGTLVTVSS
VL: not shown

The target in one assay is T1, Recombinant Human DLL4 (R&D Systems, Cat#1506-D4/CF) (human, UniProt Q9NR61 27-529).
T1 construct: Bought protein; also called rHuman DLL4; delta-like protein 4
Description: Surface Plasmon Resonance, recombinant human DLL4.
The term Kd denotes the constant that tells how readily two partners part at equilibrium. Take B1: the equilibrium dissociation constant (Kd) worked out at 388 nM.

With B2, the Kd was 70.6 nM.

Regarding B3, the Kd stood at 38000 nM.

In the next assay the target is T2, Recombinant Human DLL4 (delta-like protein 4) (human, UniProt Q9NR61 27-524).
T2 construct: Bought (R&D Systems Cat#1506-D4/CF); also called rHuman DLL4
Description: SPR, Fab on recombinant human DLL4; standard deviation in parentheses. In general terms: Surface plasmon resonance follows binding to a sensor surface in real time, without labels.
A word on the koff: it is the rate constant with which the complex falls apart. Broadly, the kon is the rate constant with which the complex forms. Regarding B4, the Kd is 730 nM, the koff turned out to be 0.101 s⁻¹ and the kon was 163000 M⁻¹ s⁻¹.

As to B5, the Kd is 122 nM, the koff worked out at 0.0492 s⁻¹ and the kon stood at 405000 M⁻¹ s⁻¹.

For B6, the dissociation constant Kd worked out at 112 nM, the koff was 0.0392 s⁻¹ and the kon is 350000 M⁻¹ s⁻¹.

As for B7, the Kd worked out at 70.6 nM, the off-rate constant (koff) came to 0.03 s⁻¹ and the kon is 425000 M⁻¹ s⁻¹.

For B8, the dissociation constant (Kd) stood at 93.1 nM, the koff came out at 0.0317 s⁻¹ and the kon was 340000 M⁻¹ s⁻¹.

Turning to B9, the Kd was determined as 380 nM, the koff is 0.19 s⁻¹ and the kon is 500000 M⁻¹ s⁻¹.

As to B10, the Kd was 38000 nM.

Turning to B11, the dissociation constant Kd was 4800 nM.

In the case of B12, the Kd was found to be 500 nM, the koff was found to be 0.29 s⁻¹ and the kon amounted to 500000 M⁻¹ s⁻¹.
